Reference: patent US20140154243A1 (Amgen, published 2014)

Columns and labels:
[1] = biological target: T1, human hepatocyte growth factor (HGF) (human, UniProt P14210 32-728); test: cell-based or functional assay
[2] = biological target: T2, mouse HGF (mouse, UniProt Q08048 33-728); test: Western blot, non-reducing and reducing SDS-PAGE
T2 construct: also called recombinant mouse HGF; mHGF
Description: Human HGF and mouse HGF were run on separate lanes of SDS PAGE gels. Human HGF and mouse HGF were each separately run at 100 ng/lane and at 10 ng/lane. Some gels were run under non-reducing conditions and other separate gels were run under reducing conditions using beta-mercaptoethanol. The human HGF and mouse HGF in the SDS PAGE gels were transferred to nitrocellulose membranes. Those membranes were separately incubated with one of the ten antibodies to HGF described in Example 6. Each of the ten antibodies to HGF was separately incubated with nitrocellulose membranes from gels containing human HGF and mouse HGF under reducing and with nitrocellulose membranes from gels containing human HGF and mouse HGF under non-reducing conditions. The membranes were then incubated with a goat anti-human IgG antibody linked to HRP (Pierce, Rockford, Ill., Cat. #31412). Signal from that goat anti-human IgG antibody linked to HRP was detected by […] (ECL™; Amersham Pharmacia Biotech, Piscataway, N.J., Cat. # RPN₂₁₀₆) following the manufacturer's instructions.

[3] = biological target: T1, human hepatocyte growth factor (HGF); test: neutralization ELISA (left table): inhibition of the binding of soluble Met (2 nM) to plate-coated HGF, detected with biotinylated anti-cMetR antibody and Eu-streptavidin; column head 'IC50 IP (nM)'
Description: (§1) A neutralization ELISA assay was developed to assess whether the antibodies discussed in Example 6 could interrupt Met-HGF binding. Delphia 96-well plates (Cat#: AAAND-0001, Wallac Inc., Gaithersburg, Md.) were coated with HGF by adding 100 μl of HGF at 6.25 μg/ml per well. The plates were incubated at 37° C. for 1 hour or at 4° C. overnight. The plates were then blocked with 5% BSA (Cat#50-61-00, KPL, Gaithersburg, Md.) in PBS containing 0.1% Tween 20 for 1 hour at room temperature with shaking.
(§2) Test samples were prepared by separately mixing soluble Met (2 nM, 0.256 μg/ml) with different concentrations of a particular antibody to HGF being tested. The concentrations tested were: 667 nM, 223 nM, 74.1 nM, 24.7 nM, 8.2 nM, 2.7 nM, 0.91 nM, 0.30 nM, 0.10 nM, and 0.034 nM. A volume of 100 μl of a test sample was added to each well of the plates. The plates were then incubated at 4° C. overnight and then washed 4 times with PBS containing 0.1% Tween 20. Next, 100 μl per well of Biotinylated anti-cMetR antibody (Cat#: BAF358, R&D Systems Inc., Minneapolis, Minn.) at 2 μg/ml, was added. […] The plates were then incubated for 2 hours with shaking, and were washed 4 times with PBS containing 0.1% Tween 20. Eu-streptavidin (1:1000 dilution in Assay buffer) (Cat#1244-360, Wallac Inc., Gaithersburg, Md.) was added and the plates were shaken at room temperature for 1 hour. The plates were then washed 4 times with PBS containing 0.1% Tween 20. Next, 100 μl of enhancement buffer (Wallac Inc., Cat#: 1244-105, Gaithersburg, Md.) was added. After at least for 5 minutes, the plates were read using Europium method on Victor 2 (1420 Multilabel Counter, Wallac Inc., Gaithersburg, Md.).
(§3) Percent inhibition of Met binding to HGF (i.e. neutralization) was calculated and IC₅₀ values were determined using the 4 parameter fit equation Excelfit, Version 2.0.6, (Microsoft Inc, Seattle, Wash.). In the presence of the antibodies to HGF discussed in Examples 6, Met binding to HGF was neutralized.

[4] = biological target: T1, human hepatocyte growth factor (HGF); test: neutralization ELISA (right table): inhibition of the binding of soluble Met (2 nM) to plate-coated HGF, detected with biotinylated anti-cMetR antibody and Eu-streptavidin; column head 'IC50 IP (nM)'
Description: as §1, §2, §3

[5] = biological target: T1, human hepatocyte growth factor (HGF); test: BIAcore 3000, kinetic method: antibody captured on immobilized Protein G, human HGF (0-100 nM) injected
Text: The running buffer for those analyses was PBS with 0.005% P20 surfactant (BIAcore, Inc. Piscataway, N.J.). Recombinant Protein G (Pierce, Rockford, Ill.) was immobilized to a research grade CM5 sensor chip (Biacore, Inc. Piscataway, N.J.) via primary amine groups using the Amine Coupling Kit (Biacore, Inc. Piscataway, N.J.), according to the manufacturer's instructions.
In six separate samples, about 200 resonance units (RU) of each of the six antibodies to HGF was separately attached to immobilized Protein G following the manufacturer's instructions. Samples comprising various concentrations (0-100 nM) of human HGF were injected over the bound antibody surface at a flow rate of 50 μl/min for 3 minutes. Antibody binding kinetic parameters including kₐ (association rate constant), kd (dissociation rate constant), and KD (dissociation equilibrium constant) were determined using the BIA evaluation 3.1 computer program (BIAcore, Inc. Piscataway, N.J.). Lower dissociation equilibrium constants indicate greater affinity of the antibody for HGF.

[6] = biological target: T1, human hepatocyte growth factor (HGF); test: BIAcore 3000, equilibrium/solution method: antibody (0.01-50 nM) incubated with human HGF (0.05 nM and 1 nM), free HGF measured on a chip carrying the same antibody
Description: That method was performed with a BIAcore®3000 (Biacore, Inc., Piscataway, N.J.) using PBS with 0.005% P20 surfactant (BIAcore, Inc. Piscataway, N.J.) as running buffer. The four antibodies to HGF were separately immobilized to research grade CM5 sensor chips (Biacore, Inc. Piscataway, N.J.) via primary amine groups using an Amine Coupling Kit (Biacore, Inc. Piscataway, N.J.) following the manufacturer's instructions.
In separate assays, each of the four antibodies to HGF, over a range of concentrations (from 0.01 nM to 50 nM) was separately incubated with each of two different concentrations (0.05 nM and 1 nM) of human HGF in PBS with 0.005% P-20 and 0.1 mg/mL BSA at room temperature for at least six hours. Each of those samples was then injected over a surface of a CM5 sensor chip onto which the same antibody to HGF had been immobilized. The binding signal obtained was proportional to the free HGF in solution. The dissociation equilibrium constant (KD) was obtained from nonlinear regression analysis of the competition curves using a dual-curve one-site homogeneous binding model (KinExA software, Sapidyne Instruments Inc., Boise Id.).

[7] = biological target: T2, mouse HGF; test: FACS bead assay: antibody incubated with the avidin fusion of mouse HGF, captured on biotin-coated beads; FITC anti-avidin (x) against PE goat anti-human F(ab')2 (y)
Description: After incubation, the fusion proteins in each sample were separately captured using biotin-coated beads (Spherotech Inc., Libertyville, Ill., Cat # TP-60-5). The resulting bead-protein complexes were labeled by adding FITC labeled anti-avidin antibody (Vector Lab, Burlingame, Calif., Cat. # SP-2040). The presence of antibodies to HGF was determined by adding phycoerythrin (PE) labeled goat anti-human F(ab′)2 antibody (Southern Biotech Associates, Inc, Birmingham, Ala., Cat #2043-09).
Those samples were then subjected to Fluorescence Activated Cell Sorter (FACS) analysis. Bead complexes labeled by FITC (which indicated the presence of avidin) and/or PE (which indicated the presence of antibody to HGF) were detected on a Becton Dickinson Bioscience FACScan (BD, Franklin Lakes, N.J.).

T1 sequence (P14210 32-728 limits assumed): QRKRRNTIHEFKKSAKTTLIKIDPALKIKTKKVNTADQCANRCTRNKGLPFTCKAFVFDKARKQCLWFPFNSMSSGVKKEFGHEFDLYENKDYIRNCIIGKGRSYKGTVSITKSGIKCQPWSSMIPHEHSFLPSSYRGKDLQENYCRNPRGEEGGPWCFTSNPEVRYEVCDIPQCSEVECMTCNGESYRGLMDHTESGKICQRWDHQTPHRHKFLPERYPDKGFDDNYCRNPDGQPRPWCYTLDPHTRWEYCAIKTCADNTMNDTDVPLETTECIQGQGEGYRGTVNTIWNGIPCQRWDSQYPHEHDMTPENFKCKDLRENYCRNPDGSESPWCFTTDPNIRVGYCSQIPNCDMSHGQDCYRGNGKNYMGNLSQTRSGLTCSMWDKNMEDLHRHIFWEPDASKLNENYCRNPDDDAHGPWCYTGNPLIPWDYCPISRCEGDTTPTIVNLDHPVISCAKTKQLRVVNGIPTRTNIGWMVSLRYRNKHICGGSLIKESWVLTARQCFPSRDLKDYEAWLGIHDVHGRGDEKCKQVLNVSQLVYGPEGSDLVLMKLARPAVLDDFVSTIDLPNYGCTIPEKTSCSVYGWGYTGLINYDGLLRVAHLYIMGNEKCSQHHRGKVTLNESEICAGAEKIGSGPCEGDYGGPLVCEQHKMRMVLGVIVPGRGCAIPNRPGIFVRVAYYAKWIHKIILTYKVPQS
T2 sequence (Q08048 33-728 limits assumed): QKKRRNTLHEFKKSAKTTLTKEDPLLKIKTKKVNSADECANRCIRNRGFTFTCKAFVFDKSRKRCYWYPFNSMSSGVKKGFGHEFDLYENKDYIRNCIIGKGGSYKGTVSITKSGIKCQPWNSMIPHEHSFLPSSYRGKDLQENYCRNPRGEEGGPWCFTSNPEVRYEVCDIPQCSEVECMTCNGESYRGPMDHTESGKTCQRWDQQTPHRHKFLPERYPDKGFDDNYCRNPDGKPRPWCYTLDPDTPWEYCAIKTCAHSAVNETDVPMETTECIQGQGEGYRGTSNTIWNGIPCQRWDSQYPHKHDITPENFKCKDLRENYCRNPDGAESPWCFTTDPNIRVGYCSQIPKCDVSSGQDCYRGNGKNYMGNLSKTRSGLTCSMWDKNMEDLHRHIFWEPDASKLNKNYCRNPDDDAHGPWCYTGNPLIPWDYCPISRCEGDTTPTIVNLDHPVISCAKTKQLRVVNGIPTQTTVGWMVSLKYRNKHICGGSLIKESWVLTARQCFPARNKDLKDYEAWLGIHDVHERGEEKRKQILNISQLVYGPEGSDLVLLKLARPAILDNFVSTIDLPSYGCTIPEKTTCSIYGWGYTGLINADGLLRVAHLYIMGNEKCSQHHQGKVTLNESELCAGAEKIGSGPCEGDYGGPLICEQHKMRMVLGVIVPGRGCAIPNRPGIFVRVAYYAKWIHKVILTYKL

Binder	IC50, inhibition of growth/survival of U-87 MG cells [1] [nM]	binding result [2]	IC50 [3] [nM]	IC50 [4] [nM]	Kd [5] [nM]	koff [5] [s⁻¹]	kon [5] [M⁻¹ s⁻¹]	Kd [6] [nM]	binding result [7]
antibody 1.24.1 (antibody, human IgG2, kappa, V domains shown, also called antibody to HGF ultimately derived from hybridoma 1.24.1) VH: QVQLVESGGGLVKPGGSLRLSCAASGFTFSDYYMSWIRQAPGKGLEWVSYISSSGSTIYYADSVKGRFTISRDNAKNSLYLQMNSLRAEDTAVYYCARDEYNSGWYVLFDYWGQGTLVTVSS VL: DIQMTQSPSSVSASVGDRVTITCRASQGISSWLAWYQQKPGKAPNLLIYEASSLQSGVPSRFGGSGSGTDFTLTISSLQPEDFATYYCQQANGFPWTFGQGTKVEIKR	< 100	no binding (tested: 100 ng and 10 ng per lane)	2.6	9.36	–	–	–	–	–
antibody 1.29.1 (antibody, human IgG2, kappa, V domains shown, also called antibody to HGF ultimately derived from hybridoma 1.29.1) VH: QVQLVESGGGVVQPGRSLRLSCAASGFTFSSYGMHWVRQAPGKGLEWVAVIWYDGSDKYYADSVKGRFTISRDNSKNTLYLQMNSLRAEDTAVYYCAREDYGEGFDYWGQGTLVTVSS VL: not shown	< 100	no binding (tested: 100 ng and 10 ng per lane)	3.2	1.93	~0.79	4.8e-05	62000	0.034	–
antibody 1.60.1 (antibody, human IgG2, kappa, V domains shown, also called antibody to HGF ultimately derived from hybridoma 1.60.1) VH: QVQLVQSGAEVKKPGASVKVSCKASGYTFTGYYINWVRQAPGQGLEWMGWINPNSGGTNYAQKFQGRVTMTRDTSITTAYMELSRLRADDTAVYYCARELELRYYGMDVWGQGTTVTVSS VL: DIQMTQSPSSLSVSVGDRVTITCRASQGISSYLAWYQQKPGKVPKLLIYVASTLQSGVPSRFSGSGSGTDFTLTISSLQPEDVATYYCQNYNSDPLTFGGGTKVEIKR	< 100	no binding (tested: 100 ng and 10 ng per lane)	–	–	–	–	–	–	–
antibody 1.61.3 (antibody, human IgG2, kappa, V domains shown, also called antibody to HGF ultimately derived from hybridoma 1.61.3) VH: QVQLQESGPGLVKPSQTLSLTCTVSGGSISSDGYYWSWIRQHPGKGLEWIGYIYYSGSTYYNPSLKSRVTISVDTSKNQFSLKLSSVTAADTAVYYCARSHLHYYDSSGYYYGGAFDIWGQGTMVTVSS VL: DIQMTQSPSSLSASVGDRVTITCQASQDISNYLNWYQQKPGTAPKLLIYGASDLETGVPSRFSGSGSGTDFTFAISSLQPEDIATYYCQQYDNLPYNFGQGTKLEIKR	< 100	no binding (tested: 100 ng and 10 ng per lane)	–	2.59	–	–	–	–	–
antibody 1.74.3 (antibody, human IgG2, kappa, V domains shown, also called 1.74.1; 1.74.2) VH: not shown VL: DIQMTQSPSSLSASVGDRVTITCRASQSINSDLNWYQQKPGKVPKLLIYVASSLQNGVPSRFSGSGSGTDFTLTISSLQPEDFATYYCQRSYSTPPTFGPGTKVDIKR	< 100	–	3.7	2.31	~0.36	4.7e-05	130000	0.041	no binding
antibody 1.75.1 (antibody, human IgG2, kappa, V domains shown, also called antibody to HGF ultimately derived from hybridoma 1.75.1) VH: QVQLQESGPGLVKPSQTLSLTCTVSGGSISSGGYYWSWIRQHPGKGLEWIGYIYYSGSTYYNPSLKSRVTISVDTSKNQFSLKVSSVTAADTAVYYCARDPLWFGEFDYYGMDVWGQGTTVTVSS VL: DIQMTQSPSSLSASVGDRVTITCRASQGIRNDLGWFQQKPGKAPKRLIYAASSLQSGVPSRFSGSGSGTEFTLTISSLQPEDFATYYCLQHDSYPLTFGGGTKVEIKR	< 100	no binding (tested: 100 ng and 10 ng per lane)	1	0.72	~0.78	2.8e-05	36000	–	–
antibody 2.40.1 (antibody, human IgG2, kappa, V domains shown, also called antibody to HGF ultimately derived from hybridoma 2.40.1) VH: QVQLQESGPGLVKPSQTLSLTCTVSGGSISSGGYYWSWIRQHPGKGLEWIGNIYYSGITYYNPSLKSRVTMSVDTSKNQFSLKLSSVTAADTAVYYCARDPLYGDYGFDPWGQGTLVTVSS VL: DIQMTQSPSSLSASVGDRVTITCRASQGIRNDLGWYQQKPGKAPKRLIYVASSLQSGVPSRFSGSGSGTEFTLTISSLQPEDFATYYCLQHNSYPLTFGGGTKVEIKR	< 100	no binding (tested: 100 ng and 10 ng per lane)	1	–	–	–	–	–	–
antibody 3.10.1 (antibody, human IgG1, kappa, V domains shown, also called antibody to HGF ultimately derived from hybridoma 3.10.1) VH: QVQLQQWGAGLLKPSETLSLTCAVYGGSFSTYYWSWIRQPPGKGLEWIGEINHSGSTNYNPSLKSRVTISVDTSKNQFSLKLSSVTAADTAVYYCARGGYDFWSGYYDYWGQGTLVTVSS VL: not shown	< 100	–	0.9	0.37	~0.47	3e-05	65000	–	no binding
